US7977317B2, “Compositions and methods for modulating blood-brain barrier transport” (Raptor Pharmaceutical Inc., priority 2001, dated 2011)

B1: lactoferrin: lactoferrin (Lf), LRP ligand used as competitor (protein, UniProt P02788 20-710, looked up)
Lactotransferrin: GRRRSVQWCAVSQPEATKCFQWQRNMRKVRGPPVSCIKRDSPIQCIQAIAENRADAVTLDGGFIYEAGLAPYKLRPVAAEVYGTERQPRTHYYAVAVVKKGGSFQLNELQGLKSCHTGLRRTAGWNVPIGTLRPFLNWTGPPEPIEAAVARFFSASCVPGADKGQFPNLCRLCAGTGENKCAFSSQEPYFSYSGAFKCLRDGAGDVAFIRESTVFEDLSDEAERDEYELLCPDNTRKPVDKFKDCHLARVPSHAVVARSVNGKEDAIWNLLRQAQEKFGKDKSPKFQLFGSPSGQKDLLFKDSAIGFSRVPPRIDSGLYLGSGYFTAIQNLRKSEEEVAARRARVVWCAVGEQELRKCNQWSGLSEGSVTCSSASTTEDCIALVLKGEADAMSLDGGYVYTAGKCGLVPVLAENYKSQQSSDPDPNCVDRPVEGYLAVAVVRRSDTSLTWNSVKGKKSCHTAVDRTAGWNIPMGLLFNQTGSCKFDEYFSQSCAPGSDPRSNLCALCIGDEQGENKCVPNSNERYYGYTGAFRCLAENAGDVAFVKDVTVLQNTDGNNNEAWAKDLKLADFALLCLDGKRKPVTEARSCHLAMAPNHAVVSRMDKVERLKQVLLHQQAKFGRNGSDCPDKFCLFQSETKNLLFNDNTECLARLHGKTTYEKYLGPQYVAGITNLKKCSTSPLLEACEFLRK
B2: p97: recombinant human melanotransferrin (p97), provided by Synapse Technologies (protein, UniProt P08582 20-709, looked up)
Melanotransferrin: GMEVRWCATSDPEQHKCGNMSEAFREAGIQPSLLCVRGTSADHCVQLIAAQEADAITLDGGAIYEAGKEHGLKPVVGEVYDQEVGTSYYAVAVVRRSSHVTIDTLKGVKSCHTGINRTVGWNVPVGYLVESGRLSVMGCDVLKAVSDYFGGSCVPGAGETSYSESLCRLCRGDSSGEGVCDKSPLERYYDYSGAFRCLAEGAGDVAFVKHSTVLENTDGKTLPSWGQALLSQDFELLCRDGSRADVTEWRQCHLARVPAHAVVVRADTDGGLIFRLLNEGQRLFSHEGSSFQMFSSEAYGQKDLLFKDSTSELVPIATQTYEAWLGHEYLHAMKGLLCDPNRLPPYLRWCVLSTPEIQKCGDMAVAFRRQRLKPEIQCVSAKSPQHCMERIQAEQVDAVTLSGEDIYTAGKTYGLVPAAGEHYAPEDSSNSYYVVAVVRRDSSHAFTLDELRGKRSCHAGFGSPAGWDVPVGALIQRGFIRPKDCDVLTAVSEFFNASCVPVNNPKNYPSSLCALCVGDEQGRNKCVGNSQERYYGYRGAFRCLVENAGDVAFVRHTTVFDNTNGHNSEPWAAELRSEDYELLCPNGARAEVSQFAACNLAQIPPHAVMVRPDTNIFTVYGLLDKAQDLFGDDHNKNGFKMFDSSNYHGQDLLFKDATVRAVPVGEKTTYRGWLGLDYVAALEGMSSQQC

Key:
human brain capillaries = experiment: Accumulation/uptake of [125I]-p97 in isolated human brain capillaries; format: binding; settings: for Inhibition of [125I]-p97 binding/accumulation in human brain capillaries: competitor 5 micromolar, 100 nM p97, 1 h at 37° C. (FIG. 5)
Description: FIG. 5. Accumulation of p97 in human brain capillaries. Accumulation of [^125I]-p97 was measured at 37° C. for 1 h in isolated human brain capillaries (100 μg/assay). The incubation medium contained [^125I]-p97 and a final concentration of 100 nM p97 in Ringer/Hepes solution. The accumulation of [^125I]-p97 was performed in the presence or absence of 5 μm cold-p97, holo-transferrin or lactoferrin. […] The suspension was filtered under vacuum through a […] pore size Millipore filter. The filter was rinsed with 8 ml of stop solution, and the radioactivity was counted. Nonspecific binding of the radioactivity to the capillaries was determined by the addition of the ice-cold stop solution to the capillaries before adding the incubation medium. This value was subtracted from accumulation values obtained following an 1 h incubation. The results were expressed as ng of [^125I]-p97 accumulated per μg of brain capillaries.
FIG. 16 illustrates the identification of a p97 receptor according to ligand specificity. FIG. 16a, Uptake of [^125I]-p97 into human brain capillaries. The uptake of [^125I]-p97 at 100 nM (control) into isolated human brain capillaries was measured for 1 h at 37° C. in the presence of a 50-fold molar excess of unlabelled p97, human holo-transferrin or human lactoferrin. (*[…] Student's t-test (n=5); FIG. 16b, Effect of RAP on [^125I]-p97 transcytosis across BBCEC monolayers. Apical-to-basal transport of [^125I]-p97 was measured in the presence (closed circles) or absence (open circles) of RAP (25 μg/ml) (n=5); FIG. 16c, Inhibition of bovine [^125I]-lactoferrin transport by p97. Transcytosis of bovine [^125I]-lactoferrin (50 nM) was measured in the presence (closed circles) or absence (open circles) of unlabelled p97 (5 μM) at 37° C. (n=3).
A. Isolation of human brain capillaries. […]
B. p97 accumulation in human brain capillaries. […] Accumulation of [^125I]-p97 was measured at 37° C. for 1 h in isolated human brain capillaries (100 μg/assay). […]

BBCEC monolayers = experiment: Accumulation of ligands in BBCEC monolayers; format: cell-based, bovine; settings: for Accumulation in the cell monolayer of heat denatured ligand compared to normal ligand: ligand boiled 30 mins, 37° C. (FIG. 7)
Description: FIG. 7 illustrates the results of experiments where the ligands p97, Lf and Tf were heated or not heated prior to the binding study. In all cases, binding experiments were conducted in the transwell apparatus as described previously, with the exception that binding was conducted at either 4° C. or at 37° C. For the 37° C. trial, a separate experiment was conducted where the ligand was boiled for 30 mins then rapidly cooled prior to administration on the transwell plates.
FIG. 13 illustrates the transcytosis and accumulation of p97 and transferrin in BBCEC monolayers. FIG. 13a, Transcytosis experiments were performed at 37° C. (solid bars) or 4° C. (white bars). [^125I]-p97 or bovine [^125I]-holo-transferrin (1 mg/ml) was added to the upper side of the cell-covered filter. At the end of the experiment, radiolabelled proteins were measured in the lower chamber of each well by TCA precipitation (n=4). Controls were also performed at 37° C. with denatured [^125I]-p97 or bovine [^125I]-holo-transferrin boiled for 30 min (grey bars) (n=2); FIG. 13b, Biospecific interaction analysis was performed with native or boiled p97 for the indicated times. MAb L235 (5 μg) was immobilized on a sensor chip (SM5) using standard procedures incorporating NHS, EDC and ethanolamine. Native and boiled p97 (5 to 30 min) diluted at 1 mg/ml in Ringer/Hepes was cooled and injected into the BIAcore. The surface plasmon resonance response obtained for native p97 and boiled p97 was plotted (in relative units (RU)) as a function of time; FIG. 13c, The accumulation of both proteins into BBEC cells were also measured. Briefly, after incubation at 37° C. (solid bars) or 4° C. (white bars) with either [^125I]-protein, cells were washed four times with cold PBS. Accumulation of both denatured proteins (grey bars) was also measured at 37° C. Filters were then removed, and the radioactivity associated with the cells was quantified (n=3).
In all cases, binding experiments were conducted in the transwell apparatus as described previously, with the exception that binding was conducted at either 4° C. or at 37° C. For the 37° C. trial, a separate experiment was conducted where the ligand was boiled for 30 mins then rapidly cooled prior to administration on the transwell plates.

Row | Molecule | Inhibition of [125I]-p97 binding/accumulation in human brain capillaries (human brain capillaries) | Competition with p97 for receptor binding in human brain capillaries, repeat experiment (human brain capillaries; performed identically to FIG. 5 (FIG. 6)) | Accumulation of Lf compared with p97 at the end of the experiment (BBCEC monolayers; FIG. 7) | Accumulation in the cell monolayer of heat denatured ligand compared to normal ligand (BBCEC monolayers) | Accumulation in BBCE cells (BBCEC monolayers; native proteins (FIG. 13c))
1 | B1 | significantly inhibits | competes | almost twice as high | significantly lower accumulation | 
2 | B2 | significantly inhibits |  |  | significantly lower accumulation | 5.7 μg/cm2
